Laboratory results from US20020173481A1.

Molecular target: endogenous GCSF receptor of 32Dcl3 cells
Test: cell-based or functional assay

Substance “hGCSF (from UniProt P09919 31-204) (ligand)” has a kinase activity of Bmx in 32Dcl3 cells of 1.7 fold.
